Measurements: PMC13376213, “Systematic discovery of motif-based interactions of the auxiliary domains of USP family deubiquitinases” (Nature Communications, 2026)

How the values were obtained:
FLAG-USP20 = experiment: IP-MS of FLAG-USP20 and variants vs empty vector; type: cell-based, human
Procedure: For transfection, 1x10^6 HEK293 cells were seeded in 10 cm dishes with DMEM, 10% FBS, 1% L-G (without antibiotic) medium, incubated at 37 °C, with 5 % CO2 for 24 h. Cells were transfected with a transfection mix containing 970 mL of Opti-MEM (Thermo Fisher Scientific), 20 μL of PEI stock (1 mg/mL) and 5 mg of the desired cDNA. For co-transfection, 2.5 μg of DNA of each plasmid was used. The mix was vortexed for 15 s and incubated at room temperature for 15–20 min. The transfection mix was added to the dish and gently mixed. Plates were incubated at 37 °C for 36–48 h before harvesting. For USP33 constructs, 5 μM Bortezomib (proteasome inhibitor) was added 4 hours before harvesting the cells.
FLAG fusion proteins were immunoprecipitated from HEK293 cells transfected with plasmids encoding the protein of interest using the anti-FLAG M2 affinity gel from Sigma-Aldrich. […] The cell lysate was clarified by centrifugation at 17,000 x g, at 4 °C for 12 min, and the supernatant was transferred to a clean, pre-chilled low-binding Eppendorf tube. […] The IP samples were centrifuged at 6500 x g at 4 °C for 30 s. The supernatant containing the unbound proteins was transferred to a clean tube. The resin was washed three times with 500 μL of TBS, centrifuged at 6500 x g at 4 °C for 30 s. The bound FLAG fusion protein was eluted with 100 μL of 150 ng/μL 3X FLAG peptide (Sigma) in TBS and incubated in the cold room for 1 h or overnight. The tube was centrifuged at 6500 x g at 4 °C for 30 s; the eluted proteins were transferred to a clean tube. The eluted proteins were prepared for analysis by western blot or Mass Spectrometry.
Immunoprecipitation (IP) was carried out as described above; four technical replicates of each IP condition were performed, and the empty vector was used as a negative control. The eluted protein was processed following the Strap-micro protocol (Protifi). The IP elution containing 1–100 μg protein was 1:1 mixed with 2X lysis buffer (10% SDS, 100 mM TEAB pH 8.5). […] Samples were vortexed, mixed with 165 μL of 100 mM TEAB in 90% methanol, and passed through an S-Trap micro column at 4000 g for 30 s to trap the proteins. The column was washed with 150 μL of 100 mM TEAB in 90% methanol (at 4,000 x g for 30 seconds) three times. The S-Trap column was centrifuged again and transferred to a clean 2 mL tube for digestion with 20 μL of digestion buffer (1 μg trypsin per 10 μg sample in 50 mM TEAB), at 37 °C overnight in a thermomixer without shaking. The digested peptides were eluted with 40 mL of 50 mM TEAB in water, 40 mL of 0.2 % formic acid in water, and 40 mL of 50 % acetonitrile in water, centrifuging at 4000 x g for 1 min each time. The three elutions were pooled in a low-binding tube, placed on dry ice until frozen, dried in a SpeedVac vacuum (Thermo Scientific), and proceeded with the LCMS analysis.
Protein groups identified with a single peptide or quantified in fewer than three replicates in at least 1 condition were filtered out. Protein group intensities were median normalized and missing values were imputed using a Gaussian distribution centered on the median with a downshift of 1.8 and width of 0.3 (relative to the standard deviation).

FLAG-USP33 = experiment: IP-MS of FLAG-USP33 and variants vs empty vector; type: cell-based, human
Procedure: For transfection, 1x10^6 HEK293 cells were seeded in 10 cm dishes with DMEM, 10% FBS, 1% L-G (without antibiotic) medium, incubated at 37 °C, with 5 % CO2 for 24 h. Cells were transfected with a transfection mix containing […] of Opti-MEM (Thermo Fisher Scientific), 20 μL of PEI stock (1 mg/mL) and […] of the desired cDNA. For co-transfection, 2.5 μg of DNA of each plasmid was used. The mix was vortexed for 15 s and incubated at room temperature for 15–20 min. The transfection mix was added to the dish and gently mixed. Plates were incubated at 37 °C for 36–48 h before harvesting. For USP33 constructs, 5 μM Bortezomib (proteasome inhibitor) was added 4 hours before harvesting the cells.
FLAG fusion proteins were immunoprecipitated from HEK293 cells transfected with plasmids encoding the protein of interest using the anti-FLAG M2 affinity gel from Sigma-Aldrich. Cell pellets were lysed with 100–200 μL/per dish lysis buffer (Pierce RIPA buffer, 1X protease inhibitor (Roche), 50 unit/μL of Benzonase Nuclease) rotating at 4 °C for 30–45 min. […] The cell lysate was clarified by centrifugation at 17,000 x g, at 4 °C for 12 min, and the supernatant was transferred to a clean, pre-chilled low-binding Eppendorf tube. […] The IP samples were centrifuged at 6500 x g at 4 °C for 30 s. The supernatant containing the unbound proteins was transferred to a clean tube. The resin was washed three times with 500 μL of TBS, centrifuged at 6500 x g at 4 °C for 30 s. The bound FLAG fusion protein was eluted with 100 μL of 150 ng/μL 3X FLAG peptide (Sigma) in TBS and incubated in the cold room for 1 h or overnight. The tube was centrifuged at 6500 x g at 4 °C for 30 s; the eluted proteins were transferred to a clean tube. The eluted proteins were prepared for analysis by western blot or Mass Spectrometry.
Immunoprecipitation (IP) was carried out as described above; four technical replicates of each IP condition were performed, and the empty vector was used as a negative control. The eluted protein was processed following the Strap-micro protocol (Protifi). The IP elution containing 1–100 μg protein was 1:1 mixed with 2X lysis buffer (10% SDS, 100 mM TEAB pH 8.5). […] Samples were vortexed, mixed with 165 μL of 100 mM TEAB in 90% methanol, and passed through an S-Trap micro column at 4000 g for 30 s to trap the proteins. The column was washed with 150 μL of 100 mM TEAB in 90% methanol (at 4,000 x g for 30 seconds) three times. The S-Trap column was centrifuged again and transferred to a clean 2 mL tube for digestion with 20 μL of digestion buffer (1 μg trypsin per 10 μg sample in 50 mM TEAB), at 37 °C overnight in a thermomixer without shaking. The digested peptides were eluted with […] of 50 mM TEAB in water, […] of 0.2 % formic acid in water, and […] of 50 % acetonitrile in water, centrifuging at 4000 x g for 1 min each time. The three elutions were pooled in a low-binding tube, placed on dry ice until frozen, dried in a SpeedVac vacuum (Thermo Scientific), and proceeded with the LCMS analysis.
Eluted peptides were resuspended in water supplemented with 0.015% dodecyl maltoside and 0.1% formic acid and were injected on a Vanquish Neo UHPLC System operating in trap and elute mode coupled to an Orbitrap Astral Mass Spectrometer (Thermo Fisher Scientific). […] Eluted peptides were analyzed using data-independent acquisition mode on the mass spectrometer.
Peptides were searched against the Uniprot Swissprot Human database (released on 02/01/2023) supplemented with the USP20 and USP33 mutants using DiaNN (v1.9.0)[62] operating in library-free mode. Data filtering and statistical analysis were carried out in Python (v3.9.0) using the packages pandas, numpy, sklearn, scipy, rpy2, Plotnine, and Plotly and R (v4.4.3) using the package limma.
Protein groups identified with a single peptide or quantified in fewer than three replicates in at least 1 condition were filtered out. […]

[1] = IP-MS, FLAG-USP20 UBP mutant vs EV, comparison USP20_E55K_D59R/EV, Limma
[2] = IP-MS, FLAG-USP20 vs EV, comparison USP20_wt/EV, Limma
[3] = Table S7b USP20 MS_and_motif, bait USP20
[4] = IP-MS, FLAG-USP20-ΔDUSP2 vs EV, comparison bh_2 Sample_Limma_ImpMedInt_USP20_DUSP2_domain/EV

Molecule | log2_FC (FLAG-USP20; [1]) | log2_FC (FLAG-USP20; [2]) | log2_FC (FLAG-USP20; [3]) | log2_FC (FLAG-USP20; [4]) | further results
MEIOC (protein, UniProt A2RUB1 1-952, looked up) Meiosis-specific coiled-coil …: MEVRRGDTCPRPHPSGLREEGLEPKVAFPGGANRCWNLGADAGSRLTDVFGSVMLTGSASFYDCYTSQSEDNVDLRQTYTPFSSTEYSSSVDSSLFCAPWSTYGDDIKQPSNSQISIKNRIQTERNDYGSETDLYGLVSNILEEQDKSQPYFAEGTCSSNLKSVWPMNTSRFADHHDLLTETKRPIDTVISQQAFYSDESVSAMEKQYLRNSNLTPQQKIDELHHGFTGLDLEEQWMYPSRSDHSNCHNIQTNDTAKTTFQEYPLIKNCFTPQTGLSDIMKESGVDIYHYGRDRICTKGLEAPLQQKRAEMFLSQFNRYNENVDYCRYPEYVHPNKAKLNKCSNFSVQDSKKLANGTPETPTVEADTYTKLFQVKPANQKKMEETIPDQQNFTFPKTTPHLTEKQFAKEAVFTADFGLTSEYGLKPHTACPANDFANVTEKQQFAKPDPPHSEYFKSVNLLSNSATSSGGINLNRPTWMNVQTKNNTPIPYRNQGNLMKLNSHLSAASKGSNHSSDFPQLSSTNLTPNSNLFQKYCQENPSAFSSFDFSYSGAERIQSVNHIEGLTKPGEENLFKLVTDKKIKQPNGFCDNYSAQKYGIIENVNKHNFQAKPQSGHYDPEEGPKHLDGLSQNTYQDLLESQGHSNSHRTRGGDNSRVNRTQVSCFSNNYMMGDLRHNQCFQQLGSNGFPLRSTHPFGHSVVPLLDSYDLLSYDDLSHLYPYFNMMYGDNSFSGLMPTFGFQRPIKTRSGPASELHIRLEECCEQWRALEKERKKTELALAKNYPGKKVSSTNNTPVPRLTSNPSRVDRLIVDELRELARVVTLLGKMERLRSSLLHASISTALDRHLESIHIVQSRRKDEIVNASNRQRQGVPRCQDDRDVFALASAIKEMCVATRKTRTALWCALQMTLPKTASTADVVKPLQDTVNCEDKVHESINSSNPMNQRGETNKH | 4.883 | 5.071 | 5.071 |  | log2_FC (FLAG-USP20; IP-MS, FLAG-USP20-ΔUBP vs EV, comparison bh_2 Sample_Limma_ImpMedInt_USP20_UBP_domain/EV): 4.277
CCDC85C (protein, UniProt A6NKD9 2-419, looked up) Coiled-coil domain-containing …: AKPAATAAAASEELSQVPDEELLRWSKEELARRLRRAEGEKVGLMLEHGGLMRDVNRRLQQHLLEIRGLKDVNQRLQDDNQELRELCCFLDDDRQKGRKLAREWQRFGRHAAGAVWHEVARSQQKLRELEARQEALLRENLELKELVLLLDEERAALAATGAASGGGGGGGGAGSRSSIDSQASLSGPLSGGAPGAGARDVGDGSSTSSAGSGGSPDHHHHVPPPLLPPGPHKAPDGKAGATRRSLDDLSAPPHHRSIPNGLHDPSSTYIRQLESKVRLLEGDKLLAQQAGSGEFRTLRKGFSPYHSESQLASLPPSYQDSLQNGPACPAPELPSPPSAGYSPAGQKPEAVVHAMKVLEVHENLDRQLQDSCEEDLSEKEKAIVREMCNVVWRKLGDAASSKPSIRQHLSGNQFKGPL | 3.963 | 4.015 | 4.015 |  | 
ILVBL (protein, UniProt A1L0T0 1-632, looked up) 2-hydroxyacyl-CoA lyase 2: METPAAAAPAGSLFPSFLLLACGTLVAALLGAAHRLGLFYQLLHKVDKASVRHGGENVAAVLRAHGVRFIFTLVGGHISPLLVACEKLGIRVVDTRHEVTAVFAADAMARLSGTVGVAAVTAGPGLTNTVTAVKNAQMAQSPILLLGGAASTLLQNRGALQAVDQLSLFRPLCKFCVSVRRVRDIVPTLRAAMAAAQSGTPGPVFVELPVDVLYPYFMVQKEMVPAKPPKGLVGRVVSWYLENYLANLFAGAWEPQPEGPLPLDIPQASPQQVQRCVEILSRAKRPLMVLGSQALLTPTSADKLRAAVETLGVPCFLGGMARGLLGRNHPLHIRENRSAALKKADVIVLAGTVCDFRLSYGRVLSHSSKIIIVNRNREEMLLNSDIFWKPQEAVQGDVGSFVLKLVEGLQGQTWAPDWVEELREADRQKEQTFREKAAMPVAQHLNPVQVLQLVEETLPDNSILVVDGGDFVGTAAHLVQPRGPLRWLDPGAFGTLGVGAGFALGAKLCRPDAEVWCLFGDGAFGYSLIEFDTFVRHKIPVMALVGNDAGWTQISREQVPSLGSNVACGLAYTDYHKAAMGLGARGLLLSRENEDQVVKVLHDAQQQCRDGHPVVVNILIGRTDFRDGSIAV |  |  |  |  | log2_FC (FLAG-USP33; IP-MS, FLAG-USP33-ΔDUSP2 vs EV, comparison bh_2 Sample_Limma_ImpMedInt_USP33_DUSP2_domain/EV): 1.755; log2_FC (FLAG-USP33; IP-MS, FLAG-USP33 vs EV, comparison USP33_wt/EV, Limma): 1.749; log2_FC (FLAG-USP33; Table S7c USP33 MS_and_motif, bait USP33): 1.749
RCCD1 (protein, UniProt A6NED2 1-376, looked up) RCC1 domain-containing …: MAEERPGAWFGFGFCGFGQELGSGRGRQVHSPSPLRAGVDICRVSASWSYTAFVTRGGRLELSGSASGAAGRCKDAWASEGLLAVLRAGPGPEALLQVWAAESALRGEPLWAQNVVPEAEGEDDPAGEAQAGRLPLLPCARAYVSPRAPFYRPLAPELRARQLELGAEHALLLDAAGQVFSWGGGRHGQLGHGTLEAELEPRLLEALQGLVMAEVAAGGWHSVCVSETGDIYIWGWNESGQLALPTRNLAEDGETVAREATELNEDGSQVKRTGGAEDGAPAPFIAVQPFPALLDLPMGSDAVKASCGSRHTAVVTRTGELYTWGWGKYGQLGHEDTTSLDRPRRVEYFVDKQLQVKAVTCGPWNTYVYAVEKGKS | 4.331 |  |  | 4 | 
RTL8C (protein, UniProt O15255 1-206, looked up) CAAX box protein 1: MGGGRGLLGRETLGPGGGCSGEGPLCYWPPPGSPPAPSLRASLPLEPPRCPLRSCSLPRSACLCSRNSAPGSCCRPWASLWSEPPPSPSSQPAPPMYIWTLSCAPAASWAPVTHWTDHPLPPLPSPLLPTRLPDDYIILPTDLRCHSHRHPSHPTDRLLLLVIWTHLGGIWAGHSPWTVIQTAGRPPRDLSPSARPISSPPPETSC | 5.261 |  |  | 4.856 | 
SNAP23 (protein, UniProt O00161 1-211, looked up) Synaptosomal-associated …: MDNLSSEEIQQRAHQITDESLESTRRILGLAIESQDAGIKTITMLDEQKEQLNRIEEGLDQINKDMRETEKTLTELNKCCGLCVCPCNRTKNFESGKAYKTTWGDGGENSPCNVVSKQPGPVTNGQLQQPTTGAASGGYIKRITNDAREDEMEENLTQVGSILGNLKDMALNIGNEIDAQNPQIKRITDKADTNRDRIDIANARAKKLIDS |  |  |  | 6.953 | 
